Assay results: publication PMC12670495
pKd: −log10 of the molar value.

Biological target: ANT4044-DOTA (human)
Experiment: SPR; Biacore T200, single-cycle kinetics, 25 °C, HBS-EP+; antibody-DOTA captured on a Protein G chip (~50 RU); PSMA as analyte, three-point 2-fold dilution 12.5-50 nM, 40 uL/min; association 200 s, dissociation 1500 s; Langmuir 1:1 fit

Sequence of ANT4044-DOTA (human) (heavy, as listed by the source, chain 1 of 2): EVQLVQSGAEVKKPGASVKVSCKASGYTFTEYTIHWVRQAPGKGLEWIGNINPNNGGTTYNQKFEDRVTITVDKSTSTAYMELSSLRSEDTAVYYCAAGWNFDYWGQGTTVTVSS
Sequence of ANT4044-DOTA (human) (light, as listed by the source, chain 2 of 2): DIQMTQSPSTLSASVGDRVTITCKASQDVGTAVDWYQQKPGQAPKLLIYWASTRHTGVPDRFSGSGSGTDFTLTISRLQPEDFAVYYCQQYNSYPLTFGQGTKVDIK

pKd: 8.57
koff: 0.000187 s⁻¹
kon: 69700 M⁻¹ s⁻¹
Substance: cynomolgus PSMA (natural protein)
